# Laboratory results from IntAct's records for PubMed 31515488.
# B1: DCC-interacting protein 13-alpha (Homo sapiens), Q9UKG1 (parent)
# chain: MPGIDKLPIEETLEDSPQTRSLLGVFEEDATAISNYMNQLYQAMHRIYDAQNELSAATHLTSKLLKEYEKQRFPLGGDDEVMSSTLQQFSKVIDELSSCHAVLSTQLADAMMFPITQFKERDLKEILTLKEVFQIASNDHDAAINRYSRLSKKRENDKVKYEVTEDVYTSRKKQHQTMMHYFCALNTLQYKKKIALLEPLLGYMQAQISFFKMGSENLNEQLEEFLANIGTSVQNVRREMDSDIETMQQTIEDLEVASDPLYVPDPDPTKFPVNRNLTRKAGYLNARNKTGLVSSTWDRQFYFTQGGNLMSQARGDVAGGLAMDIDNCSVMAVDCEDRRYCFQITSFDGKKSSILQAESKKDHEEWICTINNISKQIYLSENPEETAARVNQSALEAVTPSPSFQQRHESLRPAAGQSRPPTARTSSSGSLGSESTNLAALSLDSLVAPDTPIQFDIISPVCEDQPGQAKAFGQGGRRTNPFGESGGSTKSETEDSILHQLFIVRFLGSMEVKSDDHPDVVYETMRQILAARAIHNIFRMTESHLLVTCDCLKLIDPQTQVTRLTFPLPCVVLYATHQENKRLFGFVLRTSSGRSESNLSSVCYIFESNNEGEKICDSVGLAKQIALHAELDRRASEKQKEIERVKEKQQKELNKQKQIEKDLEEQSRLIAASSRPNQASSEGQFVVLSSSQSEESDLGEGGKKRESEA
# B2: Keratin, type I cytoskeletal 20 (Homo sapiens), P35900 (parent)
# chain: MDFSRRSFHRSLSSSLQAPVVSTVGMQRLGTTPSVYGGAGGRGIRISNSRHTVNYGSDLTGGGDLFVGNEKMAMQNLNDRLASYLEKVRTLEQSNSKLEVQIKQWYETNAPRAGRDYSAYYRQIEELRSQIKDAQLQNARCVLQIDNAKLAAEDFRLKYETERGIRLTVEADLQGLNKVFDDLTLHKTDLEIQIEELNKDLALLKKEHQEEVDGLHKHLGNTVNVEVDAAPGLNLGVIMNEMRQKYEVMAQKNLQEAKEQFERQTAVLQQQVTVNTEELKGTEVQLTELRRTSQSLEIELQSHLSMKESLEHTLEETKARYSSQLANLQSLLSSLEAQLMQIRSNMERQNNEYHILLDIKTRLEQEIATYRRLLEGEDVKTTEYQLSTLEERDIKKTRKIKTVVQEVVDGKVVSSEVKEVEENI
# partner: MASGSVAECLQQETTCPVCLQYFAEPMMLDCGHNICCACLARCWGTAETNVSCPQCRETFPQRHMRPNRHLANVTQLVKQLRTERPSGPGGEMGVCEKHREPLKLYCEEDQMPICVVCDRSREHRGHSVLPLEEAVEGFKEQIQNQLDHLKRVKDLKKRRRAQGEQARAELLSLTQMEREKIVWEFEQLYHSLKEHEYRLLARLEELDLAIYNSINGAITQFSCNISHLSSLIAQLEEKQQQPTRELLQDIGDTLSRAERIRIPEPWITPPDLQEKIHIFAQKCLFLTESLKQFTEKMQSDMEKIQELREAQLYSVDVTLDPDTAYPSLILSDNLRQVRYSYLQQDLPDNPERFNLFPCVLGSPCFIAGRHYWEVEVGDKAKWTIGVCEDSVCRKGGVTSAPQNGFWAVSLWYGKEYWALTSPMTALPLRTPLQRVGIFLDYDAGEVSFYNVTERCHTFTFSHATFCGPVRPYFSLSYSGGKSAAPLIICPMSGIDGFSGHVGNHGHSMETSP
# B3: Beta-crystallin A4 (Homo sapiens), P53673 (parent)
# chain: MTLQCTKSAGPWKMVVWDEDGFQGRRHEFTAECPSVLELGFETVRSLKVLSGAWVGFEHAGFQGQQYILERGEYPSWDAWGGNTAYPAERLTSFRPAACANHRDSRLTIFEQENFLGKKGELSDDYPSLQAMGWEGNEVGSFHVHSGAWVCSQFPGYRGFQYVLECDHHSGDYKHFREWGSHAPTFQVQSIRRIQQ
# B4: Protein SSX3 (Homo sapiens), Q99909 (parent)
# chain: MNGDDTFARRPTVGAQIPEKIQKAFDDIAKYFSKEEWEKMKVSEKIVYVYMKRKYEAMTKLGFKAILPSFMRNKRVTDFQGNDFDNDPNRGNQVQRPQMTFGRLQGIFPKIMPKKPAEEGNVSKEVPEASGPQNDGKQLCPPGKPTTSEKINMISGPKRGEHAWTHRLRERKQLVIYEEISDPEEDDE
# partner: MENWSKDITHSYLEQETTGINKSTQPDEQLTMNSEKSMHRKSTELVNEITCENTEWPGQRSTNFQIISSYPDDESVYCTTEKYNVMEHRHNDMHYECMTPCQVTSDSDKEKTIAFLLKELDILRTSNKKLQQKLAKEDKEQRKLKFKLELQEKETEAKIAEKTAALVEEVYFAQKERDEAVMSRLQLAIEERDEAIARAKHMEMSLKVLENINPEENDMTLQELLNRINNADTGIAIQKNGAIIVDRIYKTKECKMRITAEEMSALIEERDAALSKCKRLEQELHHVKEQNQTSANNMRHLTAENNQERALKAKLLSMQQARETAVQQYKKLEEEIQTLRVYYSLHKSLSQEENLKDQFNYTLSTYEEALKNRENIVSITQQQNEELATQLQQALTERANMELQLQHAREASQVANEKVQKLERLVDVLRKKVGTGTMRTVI
# B5: Intraflagellar transport protein 27 homolog (Homo sapiens), Q9BW83 (parent)
# chain: MVKLAAKCILAGDPAVGKTALAQIFRSDGAHFQKSYTLTTGMDLVVKTVPVPDTGDSVELFIFDSAGKELFSEMLDKLWESPNVLCLVYDVTNEESFNNCSKWLEKARSQAPGISLPGVLVGNKTDLAGRRAVDSAEARAWALGQGLECFETSVKEMENFEAPFHCLAKQFHQLYREKVEVFRALA
# partner: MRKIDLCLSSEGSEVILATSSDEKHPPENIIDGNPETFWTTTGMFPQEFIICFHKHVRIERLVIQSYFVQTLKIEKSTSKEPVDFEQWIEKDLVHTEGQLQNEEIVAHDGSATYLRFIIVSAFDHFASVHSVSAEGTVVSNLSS
# B6: "Peptide-N(4)-(N-acetyl-beta-glucosaminyl)asparagine amidase" (Homo sapiens), Q96IV0 (parent)
# chain: MAAAALGSSSGSASPAVAELCQNTPETFLEASKLLLTYADNILRNPNDEKYRSIRIGNTAFSTRLLPVRGAVECLFEMGFEEGETHLIFPKKASVEQLQKIRDLIAIERSSRLDGSNKSHKVKSSQQPAASTQLPTTPSSNPSGLNQHTRNRQGQSSDPPSASTVAADSAILEVLQSNIQHVLVYENPALQEKALACIPVQELKRKSQEKLSRARKLDKGINISDEDFLLLELLHWFKEEFFHWVNNVLCSKCGGQTRSRDRSLLPSDDELKWGAKEVEDHYCDACQFSNRFPRYNNPEKLLETRCGRCGEWANCFTLCCRAVGFEARYVWDYTDHVWTEVYSPSQQRWLHCDACEDVCDKPLLYEIGWGKKLSYVIAFSKDEVVDVTWRYSCKHEEVIARRTKVKEALLRDTINGLNKQRQLFLSENRRKELLQRIIVELVEFISPKTPKPGELGGRISGSVAWRVARGEMGLQRKETLFIPCENEKISKQLHLCYNIVKDRYVRVSNNNQTISGWENGVWKMESIFRKVETDWHMVYLARKEGSSFAYISWKFECGSVGLKVDSISIRTSSQTFQTGTVEWKLRSDTAQVELTGDNSLHSYADFSGATEVILEAELSRGDGDVAWQHTQLFRQSLNDHEENCLEIIIKFSDL
# Variants of: B1
# Conditions: with traf2_human TRAF2, Q12933
# traf2_human TRAF2, Q12933, sequence (Q12933 whole entry): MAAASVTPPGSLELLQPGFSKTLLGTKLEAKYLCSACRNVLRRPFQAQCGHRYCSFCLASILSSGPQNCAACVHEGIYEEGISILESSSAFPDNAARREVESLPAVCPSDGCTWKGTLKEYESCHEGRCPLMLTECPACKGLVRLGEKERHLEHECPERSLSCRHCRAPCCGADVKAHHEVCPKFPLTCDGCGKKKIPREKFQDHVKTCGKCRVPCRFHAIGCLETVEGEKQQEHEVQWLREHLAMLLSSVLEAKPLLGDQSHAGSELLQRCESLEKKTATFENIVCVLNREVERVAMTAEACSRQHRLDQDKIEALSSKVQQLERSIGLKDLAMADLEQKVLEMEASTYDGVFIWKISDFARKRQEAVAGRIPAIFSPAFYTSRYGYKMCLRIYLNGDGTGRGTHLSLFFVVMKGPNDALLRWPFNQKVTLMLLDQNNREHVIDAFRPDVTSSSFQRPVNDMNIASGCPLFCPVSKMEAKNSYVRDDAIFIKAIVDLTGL
row,effect of a mutation on the interaction,Variant
1,with no effect,E643Q

# Variants of: B1
# Conditions: with maga9_human MAGEA9, P43362
# maga9_human MAGEA9, P43362, sequence (P43362 whole entry): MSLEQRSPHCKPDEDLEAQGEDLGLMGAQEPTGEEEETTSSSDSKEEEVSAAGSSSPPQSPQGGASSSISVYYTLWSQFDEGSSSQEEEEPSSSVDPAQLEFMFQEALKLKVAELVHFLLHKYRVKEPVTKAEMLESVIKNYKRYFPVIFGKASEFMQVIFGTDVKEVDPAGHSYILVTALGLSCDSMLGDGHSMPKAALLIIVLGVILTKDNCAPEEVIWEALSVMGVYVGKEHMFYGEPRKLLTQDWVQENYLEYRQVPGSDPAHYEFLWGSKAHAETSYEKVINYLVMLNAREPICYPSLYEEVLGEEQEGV
row,effect of a mutation on the interaction,Variant
1,with no effect,E643Q

# Variants of: B2
# Conditions: with tri27_human TRIM27, P14373
row,effect of a mutation on the interaction,Variant
1,with no effect,S129N
2,with no effect,S309Y

# Variants of: B3
# Conditions: with cep76_human CEP76, Q8TAP6
# cep76_human CEP76, Q8TAP6, sequence (Q8TAP6 whole entry): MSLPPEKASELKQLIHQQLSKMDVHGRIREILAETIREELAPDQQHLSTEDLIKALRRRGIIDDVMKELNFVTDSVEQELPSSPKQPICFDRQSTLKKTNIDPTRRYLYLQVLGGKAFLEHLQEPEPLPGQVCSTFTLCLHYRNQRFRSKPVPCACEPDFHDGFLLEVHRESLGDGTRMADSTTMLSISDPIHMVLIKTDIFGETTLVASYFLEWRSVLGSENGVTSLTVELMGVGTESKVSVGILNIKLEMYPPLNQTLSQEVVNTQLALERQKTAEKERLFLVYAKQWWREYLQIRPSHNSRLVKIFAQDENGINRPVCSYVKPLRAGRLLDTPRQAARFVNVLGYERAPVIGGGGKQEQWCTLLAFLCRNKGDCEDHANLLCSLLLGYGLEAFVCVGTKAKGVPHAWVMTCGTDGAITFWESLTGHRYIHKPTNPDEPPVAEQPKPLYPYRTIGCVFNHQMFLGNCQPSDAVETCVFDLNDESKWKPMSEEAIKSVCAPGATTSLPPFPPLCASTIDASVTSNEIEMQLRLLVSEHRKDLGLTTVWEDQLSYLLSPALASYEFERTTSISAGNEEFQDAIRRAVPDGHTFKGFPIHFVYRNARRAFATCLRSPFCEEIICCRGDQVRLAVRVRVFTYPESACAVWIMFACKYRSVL
row,effect of a mutation on the interaction,Variant
1,with no effect,R103C

# Variants of: B4
# Conditions: with mipo1_human MIPOL1, Q8TD10
row,Variant,effect of a mutation on the interaction
1,R159S,with no effect
2,T77A,with no effect

# Variants of: B5
# Conditions: with ift25_human IFT25, Q9Y547
row,effect of a mutation on the interaction,Variant
1,disrupting interaction strength,A142V

# Variants of: B6
# Conditions: with ubql1_human UBQLN1, Q9UMX0
# ubql1_human UBQLN1, Q9UMX0, sequence (Q9UMX0 whole entry): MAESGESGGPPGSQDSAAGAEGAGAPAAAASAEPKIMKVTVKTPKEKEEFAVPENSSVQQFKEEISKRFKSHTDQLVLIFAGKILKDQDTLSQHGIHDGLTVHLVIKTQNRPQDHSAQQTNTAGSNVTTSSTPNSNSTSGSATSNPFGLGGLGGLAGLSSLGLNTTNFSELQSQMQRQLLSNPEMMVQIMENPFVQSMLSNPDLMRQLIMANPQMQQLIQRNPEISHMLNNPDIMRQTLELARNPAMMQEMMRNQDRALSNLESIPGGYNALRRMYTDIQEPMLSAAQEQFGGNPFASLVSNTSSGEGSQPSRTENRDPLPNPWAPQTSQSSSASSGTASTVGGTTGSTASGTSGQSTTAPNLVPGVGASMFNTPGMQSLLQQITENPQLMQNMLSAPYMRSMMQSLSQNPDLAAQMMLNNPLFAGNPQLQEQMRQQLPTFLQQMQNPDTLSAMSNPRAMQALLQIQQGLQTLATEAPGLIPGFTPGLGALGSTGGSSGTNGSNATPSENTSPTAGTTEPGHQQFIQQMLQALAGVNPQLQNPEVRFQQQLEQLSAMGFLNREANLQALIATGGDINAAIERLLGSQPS
row,effect of a mutation on the interaction,Variant
1,with no effect,V184F

# Variants of: B6
# Conditions: with gucd1_human GUCD1, Q96NT3
# gucd1_human GUCD1, Q96NT3, sequence (Q96NT3 whole entry): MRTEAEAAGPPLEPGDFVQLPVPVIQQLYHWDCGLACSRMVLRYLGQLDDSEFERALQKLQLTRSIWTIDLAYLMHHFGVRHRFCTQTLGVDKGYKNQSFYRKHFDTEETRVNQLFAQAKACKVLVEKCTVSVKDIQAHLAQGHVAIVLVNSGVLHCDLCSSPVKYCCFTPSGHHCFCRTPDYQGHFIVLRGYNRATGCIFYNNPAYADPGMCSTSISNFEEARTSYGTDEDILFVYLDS
row,effect of a mutation on the interaction,Variant
1,with no effect,V184F

# Variants of: B6
# Conditions: with trad1_human TRAFD1, O14545
# trad1_human TRAFD1, O14545, sequence (O14545 whole entry): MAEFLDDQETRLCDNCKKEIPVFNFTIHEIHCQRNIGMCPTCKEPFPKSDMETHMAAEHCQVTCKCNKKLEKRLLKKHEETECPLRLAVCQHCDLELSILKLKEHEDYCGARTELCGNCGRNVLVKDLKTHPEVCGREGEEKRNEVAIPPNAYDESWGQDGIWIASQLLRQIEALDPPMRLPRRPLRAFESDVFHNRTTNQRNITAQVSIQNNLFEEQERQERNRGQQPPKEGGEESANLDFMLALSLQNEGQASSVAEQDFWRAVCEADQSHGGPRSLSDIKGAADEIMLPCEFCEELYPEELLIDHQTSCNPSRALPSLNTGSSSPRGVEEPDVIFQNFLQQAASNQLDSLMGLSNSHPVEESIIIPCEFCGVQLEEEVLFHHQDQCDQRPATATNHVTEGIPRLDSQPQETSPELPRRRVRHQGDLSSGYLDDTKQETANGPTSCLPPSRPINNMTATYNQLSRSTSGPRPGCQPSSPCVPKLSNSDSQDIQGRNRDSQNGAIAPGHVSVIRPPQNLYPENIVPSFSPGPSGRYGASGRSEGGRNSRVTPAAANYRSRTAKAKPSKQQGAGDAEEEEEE
row,effect of a mutation on the interaction,Variant
1,with no effect,V184F
